Results published in IntAct's records for PubMed 35512704.

B1: Mothers against decapentaplegic homolog 4 (Homo sapiens), Q13485 (parent)
chain: MDNMSITNTPTSNDACLSIVHSLMCHRQGGESETFAKRAIESLVKKLKEKKDELDSLITAITTNGAHPSKCVTIQRTLDGRLQVAGRKGFPHVIYARLWRWPDLHKNELKHVKYCQYAFDLKCDSVCVNPYHYERVVSPGIDLSGLTLQSNAPSSMMVKDEYVHDFEGQPSLSTEGHSIQTIQHPPSNRASTETYSTPALLAPSESNATSTANFPNIPVASTSQPASILGGSHSEGLLQIASGPQPGQQQNGFTGQPATYHHNSTTTWTGSRTAPYTPNLPHHQNGHLQHHPPMPPHPGHYWPVHNELAFQPPISNHPAPEYWCSIAYFEMDVQVGETFKVPSSCPIVTVDGYVDPSGGDRFCLGQLSNVHRTEAIERARLHIGKGVQLECKGEGDVWVRCLSDHAVFVQSYYLDREAGRAPGDAVHKIYPSAYIKVFDLRQCHRQMQQQAATAQAAAAAQAAAVAGNIPGPGSVGGIAPAISLSAAAGIGVDDLRRLCILRMSFVKGWGPDYPRQSIKETPCWIEIHLHRALQLLDEVLHTMPIADPQPLD
partner: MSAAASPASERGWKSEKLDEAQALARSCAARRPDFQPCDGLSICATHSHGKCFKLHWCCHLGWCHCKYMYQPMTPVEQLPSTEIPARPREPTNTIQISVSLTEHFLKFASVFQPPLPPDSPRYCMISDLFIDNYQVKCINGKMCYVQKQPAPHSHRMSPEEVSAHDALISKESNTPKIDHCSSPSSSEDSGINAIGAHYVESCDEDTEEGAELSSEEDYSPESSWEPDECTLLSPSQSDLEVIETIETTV
B2: Mothers against decapentaplegic homolog 4 (Homo sapiens), Q13485 (parent)
chain: B1 chain
partner: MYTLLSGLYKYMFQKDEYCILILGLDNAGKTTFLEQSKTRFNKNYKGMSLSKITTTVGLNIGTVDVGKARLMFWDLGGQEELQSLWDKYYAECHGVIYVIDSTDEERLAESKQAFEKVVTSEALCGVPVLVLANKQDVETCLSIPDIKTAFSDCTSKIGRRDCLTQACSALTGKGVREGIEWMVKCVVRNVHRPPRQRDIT
B3: Mothers against decapentaplegic homolog 4 (Homo sapiens), Q13485 (parent)
chain: B1 chain
partner: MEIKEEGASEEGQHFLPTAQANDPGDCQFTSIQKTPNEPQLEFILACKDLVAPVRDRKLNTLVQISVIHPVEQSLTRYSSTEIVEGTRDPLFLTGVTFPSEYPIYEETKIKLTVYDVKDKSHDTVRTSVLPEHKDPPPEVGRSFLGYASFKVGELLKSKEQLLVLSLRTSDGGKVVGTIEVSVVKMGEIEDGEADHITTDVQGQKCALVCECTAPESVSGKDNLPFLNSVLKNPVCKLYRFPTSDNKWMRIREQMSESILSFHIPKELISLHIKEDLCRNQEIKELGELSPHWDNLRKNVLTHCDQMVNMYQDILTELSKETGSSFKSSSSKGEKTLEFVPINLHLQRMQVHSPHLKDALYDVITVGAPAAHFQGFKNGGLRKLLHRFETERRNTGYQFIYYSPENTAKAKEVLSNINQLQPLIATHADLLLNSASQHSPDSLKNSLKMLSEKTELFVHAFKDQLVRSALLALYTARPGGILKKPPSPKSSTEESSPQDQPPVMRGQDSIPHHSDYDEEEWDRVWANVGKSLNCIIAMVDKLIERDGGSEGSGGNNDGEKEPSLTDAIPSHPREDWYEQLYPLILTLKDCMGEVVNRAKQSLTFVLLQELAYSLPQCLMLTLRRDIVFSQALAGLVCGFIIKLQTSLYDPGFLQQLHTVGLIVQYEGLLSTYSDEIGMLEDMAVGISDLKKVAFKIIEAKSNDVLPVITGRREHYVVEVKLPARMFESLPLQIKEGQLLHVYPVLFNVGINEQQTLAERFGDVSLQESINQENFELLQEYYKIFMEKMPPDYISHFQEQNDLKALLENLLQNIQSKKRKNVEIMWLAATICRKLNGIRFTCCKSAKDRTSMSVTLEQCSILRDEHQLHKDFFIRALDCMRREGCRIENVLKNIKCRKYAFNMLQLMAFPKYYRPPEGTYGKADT
B4: Mothers against decapentaplegic homolog 4 (Homo sapiens), Q13485 (parent)
chain: B1 chain
partner: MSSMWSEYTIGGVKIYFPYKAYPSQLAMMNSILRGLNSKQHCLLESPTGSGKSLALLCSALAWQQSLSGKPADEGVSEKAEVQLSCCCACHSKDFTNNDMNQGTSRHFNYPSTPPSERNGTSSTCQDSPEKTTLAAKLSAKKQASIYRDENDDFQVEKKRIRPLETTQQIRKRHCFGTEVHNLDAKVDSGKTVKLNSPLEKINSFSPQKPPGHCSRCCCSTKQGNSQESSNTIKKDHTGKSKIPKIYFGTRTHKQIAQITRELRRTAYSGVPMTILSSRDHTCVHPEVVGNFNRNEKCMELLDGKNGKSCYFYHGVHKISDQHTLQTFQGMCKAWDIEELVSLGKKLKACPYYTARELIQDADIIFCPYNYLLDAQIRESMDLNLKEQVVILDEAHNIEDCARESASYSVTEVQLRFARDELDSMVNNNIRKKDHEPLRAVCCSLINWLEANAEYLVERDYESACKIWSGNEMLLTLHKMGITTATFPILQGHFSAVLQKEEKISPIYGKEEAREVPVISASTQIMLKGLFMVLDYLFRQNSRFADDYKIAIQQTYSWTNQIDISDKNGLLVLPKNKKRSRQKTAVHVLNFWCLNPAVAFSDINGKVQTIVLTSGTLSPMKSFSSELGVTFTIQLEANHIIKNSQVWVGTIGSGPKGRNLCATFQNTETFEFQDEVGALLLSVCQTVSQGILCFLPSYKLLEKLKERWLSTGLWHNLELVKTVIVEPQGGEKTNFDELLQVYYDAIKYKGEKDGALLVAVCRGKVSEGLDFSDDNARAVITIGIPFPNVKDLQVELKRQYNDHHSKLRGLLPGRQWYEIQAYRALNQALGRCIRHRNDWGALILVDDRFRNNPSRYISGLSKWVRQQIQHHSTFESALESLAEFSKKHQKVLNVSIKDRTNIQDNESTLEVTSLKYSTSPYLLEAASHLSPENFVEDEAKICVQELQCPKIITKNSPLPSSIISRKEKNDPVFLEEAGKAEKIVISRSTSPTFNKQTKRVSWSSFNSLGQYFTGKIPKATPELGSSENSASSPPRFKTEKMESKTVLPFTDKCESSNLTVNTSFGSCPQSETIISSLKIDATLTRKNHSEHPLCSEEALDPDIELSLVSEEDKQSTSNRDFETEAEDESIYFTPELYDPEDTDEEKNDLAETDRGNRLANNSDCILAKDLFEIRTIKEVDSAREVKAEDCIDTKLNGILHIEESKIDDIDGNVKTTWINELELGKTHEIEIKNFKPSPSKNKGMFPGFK
B5: Mothers against decapentaplegic homolog 4 (Homo sapiens), Q13485 (parent)
chain: B1 chain
partner: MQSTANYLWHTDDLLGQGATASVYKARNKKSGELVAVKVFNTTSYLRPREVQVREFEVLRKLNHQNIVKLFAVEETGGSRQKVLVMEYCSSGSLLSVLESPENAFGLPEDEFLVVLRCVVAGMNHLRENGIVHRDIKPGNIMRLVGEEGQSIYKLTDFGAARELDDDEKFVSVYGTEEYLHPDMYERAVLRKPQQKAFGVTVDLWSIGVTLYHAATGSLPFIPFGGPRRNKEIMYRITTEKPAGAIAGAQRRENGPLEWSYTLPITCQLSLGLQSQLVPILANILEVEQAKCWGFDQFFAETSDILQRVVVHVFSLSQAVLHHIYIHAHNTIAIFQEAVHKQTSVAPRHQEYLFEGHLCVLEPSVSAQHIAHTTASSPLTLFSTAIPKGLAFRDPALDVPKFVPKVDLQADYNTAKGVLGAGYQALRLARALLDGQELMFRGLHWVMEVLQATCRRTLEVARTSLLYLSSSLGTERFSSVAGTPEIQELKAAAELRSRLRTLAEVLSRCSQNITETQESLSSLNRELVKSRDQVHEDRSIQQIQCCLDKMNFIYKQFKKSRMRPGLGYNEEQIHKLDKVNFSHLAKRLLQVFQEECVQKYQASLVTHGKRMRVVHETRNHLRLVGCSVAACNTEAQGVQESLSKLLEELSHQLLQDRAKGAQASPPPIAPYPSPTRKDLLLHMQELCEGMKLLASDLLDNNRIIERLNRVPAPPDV
B6: Mothers against decapentaplegic homolog 4 (Homo sapiens), Q13485 (parent)
chain: B1 chain
partner: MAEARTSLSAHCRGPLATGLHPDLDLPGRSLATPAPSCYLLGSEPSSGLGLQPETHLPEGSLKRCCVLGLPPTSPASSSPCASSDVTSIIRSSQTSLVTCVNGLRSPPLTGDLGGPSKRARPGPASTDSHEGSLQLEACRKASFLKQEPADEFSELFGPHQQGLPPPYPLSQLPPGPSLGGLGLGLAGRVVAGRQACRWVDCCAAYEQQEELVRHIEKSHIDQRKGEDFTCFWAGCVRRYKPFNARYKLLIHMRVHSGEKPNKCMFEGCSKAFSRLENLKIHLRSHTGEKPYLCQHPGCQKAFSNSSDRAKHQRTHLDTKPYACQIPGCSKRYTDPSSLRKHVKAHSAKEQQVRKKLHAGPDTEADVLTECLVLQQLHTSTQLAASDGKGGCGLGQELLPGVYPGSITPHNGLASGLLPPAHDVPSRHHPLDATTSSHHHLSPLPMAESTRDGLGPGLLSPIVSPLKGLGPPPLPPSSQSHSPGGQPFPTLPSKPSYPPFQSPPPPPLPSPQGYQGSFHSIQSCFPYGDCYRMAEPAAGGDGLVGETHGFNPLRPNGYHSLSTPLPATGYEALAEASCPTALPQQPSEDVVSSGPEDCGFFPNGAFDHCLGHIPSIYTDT
B7: Mothers against decapentaplegic homolog 4 (Homo sapiens), Q13485 (parent)
chain: B1 chain
partner: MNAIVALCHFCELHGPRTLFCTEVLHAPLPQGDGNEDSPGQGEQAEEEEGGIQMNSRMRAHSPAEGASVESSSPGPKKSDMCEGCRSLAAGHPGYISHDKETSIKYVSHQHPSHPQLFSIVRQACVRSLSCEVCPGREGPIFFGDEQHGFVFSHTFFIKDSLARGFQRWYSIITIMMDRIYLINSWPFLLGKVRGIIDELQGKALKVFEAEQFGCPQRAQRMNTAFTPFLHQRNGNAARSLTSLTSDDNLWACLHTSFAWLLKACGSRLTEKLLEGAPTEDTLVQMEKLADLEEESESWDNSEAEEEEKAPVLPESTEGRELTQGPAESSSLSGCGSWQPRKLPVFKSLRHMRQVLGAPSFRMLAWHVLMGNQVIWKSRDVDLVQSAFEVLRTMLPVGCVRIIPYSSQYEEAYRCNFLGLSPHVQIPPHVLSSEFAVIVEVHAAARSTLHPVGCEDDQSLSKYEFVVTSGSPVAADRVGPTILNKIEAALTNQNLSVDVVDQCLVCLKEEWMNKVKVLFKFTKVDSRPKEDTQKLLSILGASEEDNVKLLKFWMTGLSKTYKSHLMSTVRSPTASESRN

Variants of: B1
Conditions: with cc070_human C3orf70, A6NLC5

effect of a mutation on the interaction | Variant
with no effect | G386D

Variants of: B1
Conditions: with cc070_human C3orf70, A6NLC5
Remark: another data set of the same source

effect of a mutation on the interaction | Variant
with no effect | D351H

Variants of: B1
Conditions: with cc070_human C3orf70, A6NLC5
Remark: another data set of the same source

effect of a mutation on the interaction | Variant
with no effect | R361H

Variants of: B1
Conditions: with cc070_human C3orf70, A6NLC5
Remark: another data set of the same source

effect of a mutation on the interaction | Variant
with no effect | R361C

Variants of: B2
Conditions: with arfrp_human ARFRP1, Q13795

effect of a mutation on the interaction | Variant
with no effect | D351H

Variants of: B2
Conditions: with arfrp_human ARFRP1, Q13795
Remark: another data set of the same source

effect of a mutation on the interaction | Variant
with no effect | R361H

Variants of: B2
Conditions: with arfrp_human ARFRP1, Q13795
Remark: another data set of the same source

effect of a mutation on the interaction | Variant
with no effect | R361C

Variants of: B2
Conditions: with arfrp_human ARFRP1, Q13795
Remark: another data set of the same source

effect of a mutation on the interaction | Variant
with no effect | G386D

Variants of: B3
Conditions: with inp4b_human INPP4B

effect of a mutation on the interaction | Variant
with no effect | D351H

Variants of: B3
Conditions: with inp4b_human INPP4B
Remark: another data set of the same source

effect of a mutation on the interaction | Variant
with no effect | G386D

Variants of: B3
Conditions: with inp4b_human INPP4B
Remark: another data set of the same source

effect of a mutation on the interaction | Variant
with no effect | R361C

Variants of: B3
Conditions: with inp4b_human INPP4B
Remark: another data set of the same source

effect of a mutation on the interaction | Variant
with no effect | R361H

Variants of: B4
Conditions: with fancj_human BRIP1, Q9BX63

effect of a mutation on the interaction | Variant
with no effect | D351H

Variants of: B4
Conditions: with fancj_human BRIP1, Q9BX63
Remark: another data set of the same source

effect of a mutation on the interaction | Variant
with no effect | G386D

Variants of: B5
Conditions: with ikke_human IKBKE

effect of a mutation on the interaction | Variant
with no effect | D351H

Variants of: B5
Conditions: with ikke_human IKBKE
Remark: another data set of the same source

effect of a mutation on the interaction | Variant
with no effect | G386D

Variants of: B6
Conditions: with glis1_human GLIS1, Q8NBF1

effect of a mutation on the interaction | Variant
with no effect | G386D

Variants of: B6
Conditions: with glis1_human GLIS1, Q8NBF1
Remark: another data set of the same source

effect of a mutation on the interaction | Variant
with no effect | R361H

Variants of: B6
Conditions: with glis1_human GLIS1, Q8NBF1
Remark: another data set of the same source

effect of a mutation on the interaction | Variant
with no effect | D351H

Variants of: B7
Conditions: with flcn_human FLCN

effect of a mutation on the interaction | Variant
with no effect | D351H

Variants of: B7
Conditions: with flcn_human FLCN
Remark: another data set of the same source

effect of a mutation on the interaction | Variant
with no effect | R361C
